Assays:
Assay in all cases: ELISA, plate coated with 1 µg/mL B7 family protein
[1] = biological target: T1, Human B7-1/CD80 Protein, Fc Tag (Acro B71-H5259) (human, UniProt P33681 35-242)
T1 construct: Bought protein
T1 sequence (looked up): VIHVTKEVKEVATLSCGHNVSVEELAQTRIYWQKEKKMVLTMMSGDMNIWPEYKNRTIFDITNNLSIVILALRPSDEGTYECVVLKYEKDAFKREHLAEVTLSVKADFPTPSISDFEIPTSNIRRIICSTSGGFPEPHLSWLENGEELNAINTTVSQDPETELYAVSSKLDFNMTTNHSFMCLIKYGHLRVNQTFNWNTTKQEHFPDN
Procedure: (§1) The proteins of the B7 family (see Table 9-1 for details) were each diluted to 1 μg/mL with PBS, added to a 96-well plate (Corning, #9018) at 100 μL per well, and incubated overnight at 4° C. After the liquid was discarded, the plate was washed 3 times with PBST buffer (pH 7.4, containing 0.05% tween-20), and 250 μL of 2% BSA blocking buffer was added. The plate was incubated at 37° C. for 1 hour. The blocking buffer was discarded, and the plate was washed 3 times with PBST buffer (pH 7.4, containing 0.05% Tween-20). The test antigen-binding protein was diluted to 2 concentrations: 10 nM and 1 nM, and added at 100 μL per well. The plate was incubated at 37° C. for 1 hour. An isotype antibody was taken as a control. After the plate was washed 3 times with PBST buffer (pH 7.4, containing 0.05% Tween-20), the plate was added with a 5000-fold diluted goat anti-human F(ab′)₂ HRP secondary antibody (Jackson ImmunoResearch, 109-035-097), and incubated at 37° C. away from light for 1 hour. After the plate was washed 3 times with PBST buffer (pH 7.4, containing 0.05% Tween-20), TMB (Biopanda, #TMB-S-003) was added at 100 μL/well. The plate was left away from light at room temperature for about 30 minutes. The reactions were terminated by adding 50 μL of stop buffer (BBI life sciences, #E661006-0200) to each well, and the absorbance values at 450 nm (OD450) was measured using a microplate reader (PerkinElemer, #Enspire).

[2] = biological target: T2, Human B7-2/CD86 Protein, Fc Tag (Acro CD6-H5257) (human, UniProt P42081 26-247)
T2 construct: Bought protein
T2 sequence (looked up): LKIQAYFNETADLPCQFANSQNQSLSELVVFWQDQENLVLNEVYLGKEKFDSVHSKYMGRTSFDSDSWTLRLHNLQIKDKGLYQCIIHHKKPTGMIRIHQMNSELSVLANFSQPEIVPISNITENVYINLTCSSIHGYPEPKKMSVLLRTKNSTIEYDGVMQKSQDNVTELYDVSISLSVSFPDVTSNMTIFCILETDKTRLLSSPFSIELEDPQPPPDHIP
Procedure: as §1

[3] = biological target: T3, Human B7-DC/PD-L2/CD273 Protein, Recombinant (Fc Tag) (Sino Biological H10292-H02H) (human, UniProt Q9BQ51 20-219)
T3 construct: Bought protein
T3 sequence (looked up): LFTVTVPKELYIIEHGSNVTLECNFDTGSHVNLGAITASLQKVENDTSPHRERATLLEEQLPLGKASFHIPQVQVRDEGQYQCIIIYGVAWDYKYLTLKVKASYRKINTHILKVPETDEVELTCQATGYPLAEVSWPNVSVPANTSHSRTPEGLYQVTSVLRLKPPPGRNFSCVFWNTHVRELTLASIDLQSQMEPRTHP
Procedure: as §1

[4] = biological target: T4, Human PD-L1/B7-H1 Protein, His Tag (Acro PD1-H5229) (human, UniProt Q9NZQ7 19-238)
T4 construct: Bought protein
Procedure: as §1

[5] = biological target: T5, CD275/ICOS ligand Protein, Human, Recombinant (Fc Tag) (Sino Biological 11559-H02H) (human, UniProt O75144 19-258)
T5 construct: Bought protein; also called B7H2
T5 sequence (looked up): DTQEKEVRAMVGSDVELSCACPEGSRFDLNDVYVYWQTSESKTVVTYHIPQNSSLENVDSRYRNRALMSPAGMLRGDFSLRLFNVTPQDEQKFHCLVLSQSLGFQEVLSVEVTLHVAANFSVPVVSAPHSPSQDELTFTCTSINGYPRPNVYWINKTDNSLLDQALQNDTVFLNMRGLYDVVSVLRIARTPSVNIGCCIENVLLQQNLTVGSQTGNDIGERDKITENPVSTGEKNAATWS
Procedure: as §1

[6] = biological target: T6, B7-H3/CD276 Protein, Human, Recombinant (ECD, Fc Tag) (Sino Biological 11188-H02H) (human, UniProt Q5ZPR3 29-466)
T6 construct: extracellular domain; Bought protein
T6 sequence (looked up): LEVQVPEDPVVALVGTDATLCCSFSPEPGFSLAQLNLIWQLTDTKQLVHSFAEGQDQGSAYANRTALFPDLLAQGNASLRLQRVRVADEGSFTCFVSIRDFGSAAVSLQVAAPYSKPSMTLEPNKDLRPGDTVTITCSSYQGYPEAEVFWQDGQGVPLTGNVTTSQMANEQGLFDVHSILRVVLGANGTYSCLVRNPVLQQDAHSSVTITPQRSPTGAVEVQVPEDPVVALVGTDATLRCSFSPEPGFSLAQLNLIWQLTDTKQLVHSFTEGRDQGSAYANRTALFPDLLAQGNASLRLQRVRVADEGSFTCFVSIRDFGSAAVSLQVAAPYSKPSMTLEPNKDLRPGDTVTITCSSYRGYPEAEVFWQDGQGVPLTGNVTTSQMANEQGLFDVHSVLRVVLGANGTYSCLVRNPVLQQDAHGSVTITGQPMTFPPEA
Procedure: as §1

[7] = biological target: T7, Recombinant human VISTA/B7H5/PD-1H Fc Chimera (R&D 7126-B7-050) (human, UniProt Q9H7M9 33-194)
T7 construct: Bought protein
T7 sequence (looked up): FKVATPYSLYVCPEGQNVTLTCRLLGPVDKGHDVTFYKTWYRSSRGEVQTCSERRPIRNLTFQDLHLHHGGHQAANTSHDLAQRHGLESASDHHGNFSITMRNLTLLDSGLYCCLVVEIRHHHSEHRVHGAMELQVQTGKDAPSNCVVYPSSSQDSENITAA
Procedure: as §1

[8] = biological target: T8, B7-H6/NCR3LG1 Protein, Human, Recombinant (Fc Tag) (Sino Biological 16140-H02H) (human, UniProt Q68D85 25-262)
T8 construct: Bought protein
T8 sequence (looked up): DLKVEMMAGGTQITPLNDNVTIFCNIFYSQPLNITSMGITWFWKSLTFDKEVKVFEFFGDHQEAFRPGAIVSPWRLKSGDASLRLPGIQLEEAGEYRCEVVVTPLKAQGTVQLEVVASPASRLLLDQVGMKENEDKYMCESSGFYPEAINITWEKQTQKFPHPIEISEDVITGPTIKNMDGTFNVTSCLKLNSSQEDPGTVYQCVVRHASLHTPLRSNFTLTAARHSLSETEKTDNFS
Procedure: as §1

[9] = biological target: T9, Recombinant human B7H7/HHLA2 Fc Chimera (R&D 8084-B7-050) (human, UniProt Q9UM44 23-344)
T9 construct: Bought protein
T9 sequence (looked up): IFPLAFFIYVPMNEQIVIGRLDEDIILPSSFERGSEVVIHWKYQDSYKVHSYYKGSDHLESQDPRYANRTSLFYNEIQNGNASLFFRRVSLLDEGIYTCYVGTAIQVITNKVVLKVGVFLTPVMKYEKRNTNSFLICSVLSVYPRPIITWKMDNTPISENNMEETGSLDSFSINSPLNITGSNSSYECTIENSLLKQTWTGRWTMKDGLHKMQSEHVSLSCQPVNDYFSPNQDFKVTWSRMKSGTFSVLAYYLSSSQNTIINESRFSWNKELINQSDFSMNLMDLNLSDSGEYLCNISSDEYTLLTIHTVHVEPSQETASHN
Procedure: as §1

T4 sequence (Q9NZQ7 19-238 limits assumed): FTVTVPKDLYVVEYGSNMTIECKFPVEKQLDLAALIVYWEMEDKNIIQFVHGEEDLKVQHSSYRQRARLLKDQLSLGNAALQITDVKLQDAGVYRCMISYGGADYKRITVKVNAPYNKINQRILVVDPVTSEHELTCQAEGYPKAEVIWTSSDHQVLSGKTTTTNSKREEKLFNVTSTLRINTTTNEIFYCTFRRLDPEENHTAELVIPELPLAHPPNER

binding result [1]: no binding (tested: 10 nM) | binding result [2]: no binding (tested: 10 nM) | binding result [3]: no binding (tested: 10 nM) | binding result [4]: no binding (tested: 10 nM) | binding result [5]: no binding (tested: 10 nM) | binding result [6]: no binding (tested: 10 nM) | binding result [7]: no binding (tested: 10 nM) | binding result [8]: no binding (tested: 10 nM) | binding result [9]: no binding (tested: 10 nM)
B1: PR002418 (antibody, human IgG1, kappa, V domains shown)
VH: QVQLVESGGGVVQPGRSLRLSCAASGFTFRSFGMHWVRQAPGKGLEWVAVISYDASNEYYADSVKGRFIISRDNSKDTLYLQMNSLRAGDTAVYYCAKGGGLRWYFAYWGQGTLVTVSS
VL: EIVMTQSPATLSVSPGERATLSCRASQSISSNLGWYQQKPGQAPRLLIYGASTRATGIPARFSGSGSGTEFTLTISSLQSEDFAVYYCQQYQSWPPLTFGGGTKVEIKR
notes: PTM variant/DE mutant of PR001476 (H: G55A; L: N92Q; Fc S239D, I332E), human IgG1

— patent US20230312722A1 (NONA BIOSCIENCES SUZHOU, published 2023)
